The text below walks through data of the supplement of paper PMC5998384.

Series [1] has as its system HeLa Kyoto. Description: solubility change mitosis vs G1/S (difference of NP-40 vs SDS log2 ratios) (log2 ratio difference); higher = more soluble in mitosis.
In series [2] the test system is HeLa Kyoto. Description: melting temperature (median over replicates), in situ; higher = more thermally stable.
Series [3] concerns HeLa Kyoto. As to the kind of experiment: solubility in G1/S (NP-40 vs SDS abundance) (log2 ratio); higher = more soluble. Conditions: cell cycle stage: G1/S.
Series [4] relates to HeLa Kyoto. As to the kind of experiment: thermal stability score vs G1/S (z-score of summed log2 fold changes over temperatures); higher = more thermally stable than in G1/S.
Where [5] appears, read: cell cycle stage: early G1 (4.5 h after nocodazole release).
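For melting temperature (median over replicates), in situ in this document: HeLa Kyoto cells synchronized by double thymidine or nocodazole block, proteins quantified by TMT10plex mass spectrometry, three independent biological replicates.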
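For solubility change mitosis vs G1/S (difference of NP-40 vs SDS log2 ratios) in this document: synchronized HeLa Kyoto cells (double thymidine block for G1/S, nocodazole release for mitosis), protein amounts in NP-40 versus SDS lysates quantified by mass spectrometry, three biological replicates.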
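For solubility in G1/S (NP-40 vs SDS abundance) in this document: HeLa Kyoto cells arrested at G1/S by double thymidine block, proteins quantified by TMT10plex mass spectrometry in mild NP-40 versus SDS extracts, three biological replicates.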
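For thermal stability score vs G1/S (z-score of summed log2 fold changes over temperatures) in this document: synchronized HeLa Kyoto cells, proteins quantified by TMT10plex mass spectrometry, three biological replicates, mitosis taken 0.5 h after nocodazole release, G1/S directly after double thymidine block.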

Sequence of PDCD10 (chain, as listed by the source): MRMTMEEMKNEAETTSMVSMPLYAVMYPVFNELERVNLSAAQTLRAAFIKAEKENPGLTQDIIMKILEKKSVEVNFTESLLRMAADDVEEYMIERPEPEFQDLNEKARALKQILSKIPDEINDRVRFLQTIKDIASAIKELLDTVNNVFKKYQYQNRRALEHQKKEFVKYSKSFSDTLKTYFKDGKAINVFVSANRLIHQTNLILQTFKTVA

On to “MCGIFAYLNYHVPRTRREILETLIKGLQRLEYRGYDSAGVGFDGGNDKDWEANACKIQLIKKKGKVKALDEEVHKQQDMDLDIEFDVHLGIAHTRWATHGEPSPVNSHPQRSDKNNEFIVIHNGIITNYKDLKKFLESKGYDFESETDTETIAKLVKYMYDNRESQDTSFTTLVERVIQQLEGAFALVFKSVHFPGQAVGTRRGSPLLIGVRSEHKLSTDHIPILYRTARTQIGSKFTRWGSQGERGKDKKGSCNLSRVDSTTCLFPVEEKAVEYYFASDASAVIEHTNRVIFLEDDDVAAVVDGRLSIHRIKRTAGDHPGRAVQTLQMELQQIMKGNFSSFMQKEIFEQPESVVNTMRGRVNFDDYTVNLGGLKDHIKEIQRCRRLILIACGTSYHAGVATRQVLEELTELPVMVELASDFLDRNTPVFRDDVCFFLSQSGETADTLMGLRYCKERGALTVGITNTVGSSISRETDCGVHINAGPEIGVASTKAYTSQFVSLVMFALMMCDDRISMQERRKEIMLGLKRLPDLIKEVLSMDDEIQKLATELYHQKSVLIMGRGYHYATCLEGALKIKEITYMHSEGILAGELKHGPLALVDKLMPVIMIIMRDHTYAKCQNALQQVVARQGRPVVICDKEDTETIKNTKRTIKVPHSVDCLQGILSVIPLQLLAFHLAVLRGYDVDFPRNLAKSVTVE [GFPT1]”, for which, in the series on HeLa Kyoto [1], the “solubility change mitosis (log2)” value is -0.226. For the same substance, the melting temperature in the series on HeLa Kyoto [2] (cell cycle stage: G1/S) came to 56.1 °C; with HeLa Kyoto [2] (cell cycle stage: mitosis) it was 56.2 °C. For the same substance, in the series with HeLa Kyoto [3], the “solubility in G1/S (log2)” value was -0.169. Moreover, the thermal stability score with HeLa Kyoto [4] (setting [5]) is -0.54; in the series with HeLa Kyoto [4] (cell cycle stage: mitosis) it was 0.683.

With TARBP1, the “solubility change mitosis (log2)” value in the series on HeLa Kyoto [1] was -0.207. The values for the melting temperature in the series on HeLa Kyoto [2] (cell cycle stage: G1/S) and in the series on HeLa Kyoto [2] (cell cycle stage: mitosis) were 52.3 °C and 51.6 °C, respectively. The “solubility in G1/S (log2)” value with HeLa Kyoto [3] is -0.262. Also, the thermal stability score in the series on HeLa Kyoto [4] (setting [5]) was 0.335; in the series with HeLa Kyoto [4] (cell cycle stage: mitosis) it was -0.385.

Take “MPVAGSELPRRPLPPAAQERDAEPRPPHGELQYLGQIQHILRCGVRKDDRTGTGTLSVFGMQARYSLRDEFPLLTTKRVFWKGVLEELLWFIKGSTNAKELSSKGVKIWDANGSRDFLDSLGFSTREEGDLGPVYGFQWRHFGAEYRDMESDYSGQGVDQLQRVIDTIKTNPDDRRIIMCAWNPRDLPLMALPPCHALCQFYVVNSELSCQLYQRSGDMGLGVPFNIASYALLTYMIAHITGLKPGDFIHTLGDAHIYLNHIEPLKIQLQREPRPFPKLRILRKVEKIDDFKAEDFQIEGYNPHPTIKMEMAV [TYMS]”: in the series on HeLa Kyoto [1], the “solubility change mitosis (log2)” value was -0.0717. In addition, the melting temperature in the series with HeLa Kyoto [2] (cell cycle stage: G1/S) stood at 49.2 °C; in the series on HeLa Kyoto [2] (cell cycle stage: mitosis), 49 °C. For the same substance, the “solubility in G1/S (log2)” value in the series on HeLa Kyoto [3] is -0.0779. Moreover, the thermal stability score in the series with HeLa Kyoto [4] (setting [5]) was -0.449; with HeLa Kyoto [4] (cell cycle stage: mitosis) it was 1.58.

With “MAMDQVNALCEQLVKAVTVMMDPNSTQRYRLEALKFCEEFKEKCPICVPCGLRLAEKTQVAIVRHFGLQILEHVVKFRWNGMSRLEKVYLKNSVMELIANGTLNILEEENHIKDALSRIVVEMIKREWPQHWPDMLIELDTLSKQGETQTELVMFILLRLAEDVVTFQTLPPQRRRDIQQTLTQNMERIFSFLLNTLQENVNKYQQVKTDTSQESKAQANCRVGVAALNTLAGYIDWVSMSHITAENCKLLEILCLLLNEQELQLGAAECLLIAVSRKGKLEDRKPLMVLFGDVAMHYILSAAQTADGGGLVEKHYVFLKRLCQVLCALGNQLCALLGADSDVETPSNFGKYLESFLAFTTHPSQFLRSSTQMTWGALFRHEILSRDPLLLAIIPKYLRASMTNLVKMGFPSKTDSPSCEYSRFDFDSDEDFNAFFNSSRAQQGEVMRLACRLDPKTSFQMAGEWLKYQLSTFLDAGSVNSCSAVGTGEGSLCSVFSPSFVQWEAMTLFLESVITQMFRTLNREEIPVNDGIELLQMVLNFDTKDPLILSCVLTNVSALFPFVTYRPEFLPQVFSKLFSSVTFETVEESKAPRTRAVRNVRRHACSSIIKMCRDYPQLVLPNFDMLYNHVKQLLSNELLLTQMEKCALMEALVLISNQFKNYERQKVFLEELMAPVASIWLSQDMHRVLSDVDAFIAYVGTDQKSCDPGLEDPCGLNRARMSFCVYSILGVVKRTCWPTDLEEAKAGGFVVGYTSSGNPIFRNPCTEQILKLLDNLLALIRTHNTLYAPEMLAKMAEPFTKALDMLDAEKSAILGLPQPLLELNDSPVFKTVLERMQRFFSTLYENCFHILGKAGPSMQQDFYTVEDLATQLLSSAFVNLNNIPDYRLRPMLRVFVKPLVLFCPPEHYEALVSPILGPLFTYLHMRLSQKWQVINQRSLLCGEDEAADENPESQEMLEEQLVRMLTREVMDLITVCCVSKKGADHSSAPPADGDDEEMMATEVTPSAMAELTDLGKCLMKHEDVCTALLITAFNSLAWKDTLSCQRTTSQLCWPLLKQVLSGTLLADAVTWLFTSVLKGLQMHGQHDGCMASLVHLAFQIYEALRPRYLEIRAVMEQIPEIQKDSLDQFDCKLLNPSLQKVADKRRKDQFKRLIAGCIGKPLGEQFRKEVHIKNLPSLFKKTKPMLETEVLDNDGGGLATIFEP [XPO5]”, the “solubility change mitosis (log2)” value with HeLa Kyoto [1] was -0.175. Moreover, the melting temperature in the series on HeLa Kyoto [2] (cell cycle stage: G1/S) was 49 °C; with HeLa Kyoto [2] (cell cycle stage: mitosis), 48.9 °C. In the series with HeLa Kyoto [3], the “solubility in G1/S (log2)” value was -0.158. For the same substance, the thermal stability score with HeLa Kyoto [4] (setting [5]) turned out to be 0.753; in the series on HeLa Kyoto [4] (cell cycle stage: mitosis), 2.34.

Turning to PDCD10, the “solubility change mitosis (log2)” value in the series on HeLa Kyoto [1] was -0.0258. The melting temperature with HeLa Kyoto [2] (cell cycle stage: G1/S) was 49.2 °C; in the series with HeLa Kyoto [2] (cell cycle stage: mitosis), 50.7 °C. For the same substance, the “solubility in G1/S (log2)” value in the series with HeLa Kyoto [3] turned out to be 0.326. The figures for the thermal stability score in the series on HeLa Kyoto [4] (setting [5]) and in the series with HeLa Kyoto [4] (cell cycle stage: mitosis) were 1.11 and 1.24, respectively.

Regarding “MAEGNTLISVDYEIFGKVQGVFFRKHTQAEGKKLGLVGWVQNTDRGTVQGQLQGPISKVRHMQEWLETRGSPKSHIDKANFNNEKVILKLDYSDFQIVK [ACYP1]”, the “solubility change mitosis (log2)” value in the series with HeLa Kyoto [1] was -0.0383. For the same substance, the melting temperature in the series on HeLa Kyoto [2] (cell cycle stage: G1/S) turned out to be 52.3 °C; in the series on HeLa Kyoto [2] (cell cycle stage: mitosis), 52.7 °C. In addition, the “solubility in G1/S (log2)” value in the series with HeLa Kyoto [3] stood at 0.223. The thermal stability score was 0.389 in the series on HeLa Kyoto [4] (setting [5]) and -1.31 with HeLa Kyoto [4] (cell cycle stage: mitosis).
